Assay results taken from patent US20140271653A1 (Regeneron, published 2014).

Experiments:
[1] = molecular target: RSV-F of RSV subtype A clinical isolate A2001/2-20 (respiratory syncytial virus subtype A, …); assay: cell-based or functional assay
[2] = molecular target: RSV-F of RSV subtype A clinical isolate A1998/3-2 (respiratory syncytial virus subtype A, …); assay: cell-based or functional assay
[3] = molecular target: RSV-F of RSV subtype A clinical isolate A2001/3-12 (respiratory syncytial virus subtype A, …); assay: cell-based or functional assay
[4] = molecular target: RSV-F of RSV subtype A clinical isolate A1997/12-35 (respiratory syncytial virus subtype A, …); assay: cell-based or functional assay
[5] = molecular target: RSV-F of RSV subtype A clinical isolate A1998/12-21 (respiratory syncytial virus subtype A, …); assay: cell-based or functional assay
[6] = molecular target: RSV-F of RSV subtype A clinical isolate A2000/3-4 (respiratory syncytial virus subtype A, …); assay: cell-based or functional assay
[7] = molecular target: T1, RSV-F of RSV subtype B strain 1580 (respiratory syncytial virus subtype B, …); assay: cell-based or functional assay
[8] = molecular target: T2, RSV-F of RSV subtype B strain 9320 (respiratory syncytial virus subtype B, …); assay: cell-based or functional assay
[9] = molecular target: RSV-F of RSV subtype B strain 1A2 (respiratory syncytial virus subtype B, …); assay: cell-based or functional assay
[10] = molecular target: RSV-F of RSV subtype B strain 18537 (respiratory syncytial virus subtype B, …, UniProt P13843 26-574); assay: cell-based or functional assay
[11] = molecular target: T3, RSV-F of RSV subtype A strain Long (respiratory syncytial virus subtype A, …, UniProt P12568 26-574); assay: cell-based or functional assay
[12] = molecular target: RSV-F of RSV subtype B strain 1400 (respiratory syncytial virus subtype B, …); assay: cell-based or functional assay
[13] = molecular target: T2, RSV-F of RSV subtype B strain 9320; assay: cell-based or functional assay; remark: listed apart in the source
[14] = molecular target: T4, RSV-F of RSV subtype A strain A2 (1540) (respiratory syncytial virus subtype A, …, UniProt P03420 26-574); assay: cell-based or functional assay
[15] = molecular target: T4, RSV-F of RSV subtype A strain A2 (1540); assay: cell-based or functional assay; remark: listed apart in the source
RSV-F.mmh = molecular target: T5, RSV-F.mmh (Respiratory Syncytial Virus); assay: SPR (Biacore), mAb captured via Fc, soluble RSV-F.mmh injected, 25 C
T5 construct: also called recombinant RSV-F; soluble monomeric RSV-F

[16] = molecular target: T3, RSV-F of RSV subtype A strain Long; assay: cell-based or functional assay; remark: listed apart in the source
[17] = molecular target: T4, RSV-F of RSV subtype A strain A2 (1540); assay: cell-based or functional assay; remark: listed apart in the source
[18] = molecular target: T1, RSV-F of RSV subtype B strain 1580; assay: cell-based or functional assay; remark: listed apart in the source
[19] = molecular target: T4, RSV-F of RSV subtype A strain A2 (1540); assay: cell-based or functional assay; remark: listed apart in the source
[20] = molecular target: T4, RSV-F of RSV subtype A strain A2 (1540); assay: cell-based or functional assay; remark: listed apart in the source
[21] = molecular target: RSV-F T174K of escape mutant RSV/B T174K (respiratory syncytial virus subtype B, …); assay: cell-based or functional assay
[22] = molecular target: RSV-F S173T of escape mutant RSV/B S173T (respiratory syncytial virus subtype B, …); assay: cell-based or functional assay
[23] = molecular target: RSV-F S173T/T174K of escape mutant RSV/B S173T/T174K (respiratory syncytial virus subtype B, …); assay: cell-based or functional assay
[24] = molecular target: RSV-F S173Y of escape mutant RSV/A S173Y (respiratory syncytial virus subtype A, …, UniProt P03420 26-574); assay: cell-based or functional assay

| Binder | IC50 (pM), RSV micro-neutralization, clinical isolate [1] [pM] | IC50 (pM), RSV micro-neutralization, clinical isolate [2] [pM] | IC50 (pM), RSV micro-neutralization, clinical isolate [3] [pM] | IC50 (pM), RSV micro-neutralization, clinical isolate [4] [pM] | IC50 (pM), RSV micro-neutralization, clinical isolate [5] [pM] | IC50 (pM), RSV micro-neutralization, clinical isolate [6] [pM] | RSV - 1580 Neutral. IC50 [pM] [7] [pM] | RSV - 1580 neutralization, Fold Improvement Relative to Control 1 [7] [fold] | RSV-9320 Neutral. IC50 [pM] [8] [pM] | IC50 (pM), RSV micro-neutralization, B/1A2 [9] [pM] | IC50 (pM), RSV micro-neutralization, B/18537 [10] [pM] | IC50 (pM), RSV micro-neutralization, A/Long [11] [pM] | IC50 (pM), RSV micro-neutralization, B/1400 [12] [pM] | IC50 (pM), RSV micro-neutralization, B/9320 [13] [pM] | IC50 (pM), RSV micro-neutralization, A/A2 [14] [pM] | RSV-Long Neutral. IC50 [pM] [16] [pM] | RSV-A2 (1540) Neutral. IC50 [pM] [17] [pM] | Neutralization IC50, pM (microneutralization, wt subtype B) [18] [pM] | Neutralization IC50, pM (microneutralization, wt subtype A) [19] [pM] | IC50 [pM] for RSV A2 Neutralization, Trial 7 [20] [pM] | also measured |
| --- | --- | --- | --- | --- | --- | --- | --- | --- | --- | --- | --- | --- | --- | --- | --- | --- | --- | --- | --- | --- | --- |
| H1H3592P3 (antibody, V domains shown) VH: EVQLVESGGDLVQPGRSLRLSCVASGFTFDDYAMHWVRQAPGKGLEWVSGVSWSGSTVGYADSVKGRFTVSRDNAQKSLYLQMNSLRAEDTALYYCVKDAYKFNYYYYGLDVWGQGTTVTVSS VL: EIVMTQSPATLSVSPGERATLSCRASQTILSNLAWYLQKPGQAPRLLIYGASTRATGLPARFSGSGSGTEFTLTISSLQSEDFAVYYCQQYNNWPLTFGGGTKVEIK | 43 | 35 | 66 | 40 | 34 | 50 | 31 | 12 | 100 | 48 | 230 | 44 | 33 | 151 | 140 | 15 | 10 | 290 | 177 | 10 | RSV-9320 neutralization, Fold Improvement Relative to Control 1 [8]: 4.6 fold; IC50 of blocking viral fusion (antibody added after viral attachment at 4 C, infection read by ELISA) [15]: 0.23 nM; Kd (RSV-F.mmh): 8.43 nM; koff (RSV-F.mmh): 0.000747 s⁻¹; kon (RSV-F.mmh): 88600 M⁻¹ s⁻¹; t½ (RSV-F.mmh): 15 min; RSV-Long neutralization, Fold Improvement Relative to Control 1 [16]: 35 fold; RSV-A2 (1540) neutralization, Fold Improvement Relative to Control 1 [17]: 36 fold |
| Control I (palivizumab sequence) (antibody, V domains shown, also called Control 1; SYNAGIS) VH: QVTLRESGPALVKPTQTLTLTCTFSGFSLSTSGMSVGWIRQPPGKALEWLADIWWDDKKDYNPSLKSRLTISKDTSKNQVVLKVTNMDPADTATYYCARSMITNWYFDVWGAGTTVTVSS VL: DIQMTQSPSTLSASVGDRVTITCKCQLSVGYMHWYQQKPGKAPKLLIYDTSKLASGVPSRFSGSGSGTEFTLTISSLQPDDFATYYCFQGSGYPFTFGGGTKLEIKR | 935 | 344 | 1260 | 478 | 580 | 899 | 375 |  | 460 | 223 | 1190 | 752 | 113 | 338 | 2080 | 536 | 360 | 1900 | 1140 | 250 | IC50 of blocking viral fusion (antibody added after viral attachment at 4 C, infection read by ELISA) [15]: 1 nM; Kd (RSV-F.mmh): 38.1 nM; t½ (RSV-F.mmh): 4 min; Neutralization IC50, pM (microneutralization, escape mutant) [21]: 640 pM; Neutralization IC50, pM (microneutralization, escape mutant) [22]: 1900 pM; Neutralization IC50, pM (microneutralization, escape mutant) [23]: 980 pM; Neutralization IC50, pM (microneutralization, escape mutant) [24]: 1710 pM; IC50 [pM] for RSV A2 Neutralization, Trial 1 [20]: 1820 pM; IC50 [pM] for RSV A2 Neutralization, Trial 2 [20]: 950 pM; IC50 [pM] for RSV A2 Neutralization, Trial 3 [20]: 290 pM; IC50 [pM] for RSV A2 Neutralization, Trial 5 [20]: 160 pM; IC50 [pM] for RSV A2 Neutralization, Trial 6 [20]: 500 pM |
| Control II (motavizumab sequence) (antibody, V domains shown) VH: QVTLRESGPALVKPTQTLTLTCTFSGFSLSTAGMSVGWIRQPPGKALEWLADIWWDDKKHYNPSLKDRLTISKDTSKNQVVLKVTNMDPADTATYYCARDMIFNFYFDVWGQGTTVTVSS VL: DIQMTQSPSTLSASVGDRVTITCSASSRVGYMHWYQQKPGKAPKLLIYDTSKLASGVPSRFSGSGSGTEFTLTISSLQPDDFATYYCFQGSGYPFTFGGGTKVEIKR | 74 | 36 | 129 | 41 | 68 | 88 | 43 | 8.7 | 56 | 40 | 187 | 83 | 38 | 76 | 202 | 65 | 14 | 260 | 108 | 12 | RSV-9320 neutralization, Fold Improvement Relative to Control 1 [8]: 8.2 fold; RSV-Long neutralization, Fold Improvement Relative to Control 1 [16]: 8.2 fold; RSV-A2 (1540) neutralization, Fold Improvement Relative to Control 1 [17]: 25 fold; Neutralization IC50, pM (microneutralization, escape mutant) [21]: 108 pM; Neutralization IC50, pM (microneutralization, escape mutant) [22]: 177 pM; Neutralization IC50, pM (microneutralization, escape mutant) [23]: 218 pM; Neutralization IC50, pM (microneutralization, escape mutant) [24]: 170 pM; IC50 [pM] for RSV A2 Neutralization, Trial 1 [20]: 50 pM; IC50 [pM] for RSV A2 Neutralization, Trial 2 [20]: 30 pM; IC50 [pM] for RSV A2 Neutralization, Trial 3 [20]: 23 pM; IC50 [pM] for RSV A2 Neutralization, Trial 4 [20]: 20 pM; IC50 [pM] for RSV A2 Neutralization, Trial 5 [20]: 12 pM; IC50 [pM] for RSV A2 Neutralization, Trial 6 [20]: 12 pM |
